# Measurements as given in paper PMC11535040, “Requirement of Nek2a and cyclin A2 for Wapl-dependent removal of cohesin from prophase chromatin” (The EMBO Journal, 2024).
# T1: Flag-tagged Pds5b (wild type) phosphorylated by Nek2a and Cdk1/2-cyclin A2 (human, UniProt Q9NTI5 1-1447, phosphoserine at 1161 and 1166 (by Cdk1/2-cyclin A2) and at 1177, 1182 and 1209 (by Nek2a))
# T1 construct: Pds5b, human; insert by PCR on human cDNA; How fully each site was phosphorylated in these preparations was not measured; also called Pds5b-WT treated with these two kinases; Pds5b co-expressed with Nek2aΔMR and Δ86-cyclin A2
# T1 sequence (looked up): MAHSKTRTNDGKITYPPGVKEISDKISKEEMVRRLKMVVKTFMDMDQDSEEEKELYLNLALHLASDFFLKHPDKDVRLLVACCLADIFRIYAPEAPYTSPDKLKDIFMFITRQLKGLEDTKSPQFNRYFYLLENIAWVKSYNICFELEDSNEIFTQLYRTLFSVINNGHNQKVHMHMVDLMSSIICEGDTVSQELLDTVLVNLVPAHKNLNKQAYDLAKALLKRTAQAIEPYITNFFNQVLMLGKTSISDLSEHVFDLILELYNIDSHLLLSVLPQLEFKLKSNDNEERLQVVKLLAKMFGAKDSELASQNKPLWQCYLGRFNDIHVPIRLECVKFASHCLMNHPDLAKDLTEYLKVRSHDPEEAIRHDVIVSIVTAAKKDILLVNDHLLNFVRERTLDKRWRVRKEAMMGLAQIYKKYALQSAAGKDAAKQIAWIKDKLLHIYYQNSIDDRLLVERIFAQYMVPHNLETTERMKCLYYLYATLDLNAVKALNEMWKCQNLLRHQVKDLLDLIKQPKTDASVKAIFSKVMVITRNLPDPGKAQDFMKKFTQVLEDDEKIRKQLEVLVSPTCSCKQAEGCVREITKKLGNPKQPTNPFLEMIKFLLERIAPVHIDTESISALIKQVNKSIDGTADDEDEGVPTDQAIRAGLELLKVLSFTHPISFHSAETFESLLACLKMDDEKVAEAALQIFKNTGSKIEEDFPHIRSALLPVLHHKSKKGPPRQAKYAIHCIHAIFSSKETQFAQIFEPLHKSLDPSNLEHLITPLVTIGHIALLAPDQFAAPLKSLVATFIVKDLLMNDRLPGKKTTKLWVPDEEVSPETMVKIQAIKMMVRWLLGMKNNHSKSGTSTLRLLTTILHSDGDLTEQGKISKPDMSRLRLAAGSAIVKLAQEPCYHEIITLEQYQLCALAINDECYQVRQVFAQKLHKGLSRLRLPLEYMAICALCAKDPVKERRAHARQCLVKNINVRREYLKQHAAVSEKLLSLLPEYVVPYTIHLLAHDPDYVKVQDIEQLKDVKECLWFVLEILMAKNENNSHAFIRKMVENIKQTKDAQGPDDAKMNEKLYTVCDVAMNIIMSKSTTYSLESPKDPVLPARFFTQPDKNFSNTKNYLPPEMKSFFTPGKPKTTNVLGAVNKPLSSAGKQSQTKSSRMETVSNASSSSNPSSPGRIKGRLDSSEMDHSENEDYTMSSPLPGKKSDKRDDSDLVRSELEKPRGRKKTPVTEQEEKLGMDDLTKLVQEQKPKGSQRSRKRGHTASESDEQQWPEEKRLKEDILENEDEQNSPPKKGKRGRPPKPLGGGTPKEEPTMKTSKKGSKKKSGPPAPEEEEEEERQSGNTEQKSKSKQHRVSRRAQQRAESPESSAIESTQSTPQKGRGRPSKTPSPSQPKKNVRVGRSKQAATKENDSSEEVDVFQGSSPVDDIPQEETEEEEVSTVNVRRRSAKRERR
# T2: Flag-tagged Pds5b (wild type) from cells co-expressing Nek2aΔMR (human, UniProt Q9NTI5 1-1447, phosphoserine at 1177, 1182 and 1209 (by Nek2a))
# T2 construct: Pds5b, human; insert by PCR on human cDNA; their state in this preparation was not measured; source: Hek293T co-expressing eGFP-Nek2aΔMR, taxol-arrested
# T2 sequence (looked up): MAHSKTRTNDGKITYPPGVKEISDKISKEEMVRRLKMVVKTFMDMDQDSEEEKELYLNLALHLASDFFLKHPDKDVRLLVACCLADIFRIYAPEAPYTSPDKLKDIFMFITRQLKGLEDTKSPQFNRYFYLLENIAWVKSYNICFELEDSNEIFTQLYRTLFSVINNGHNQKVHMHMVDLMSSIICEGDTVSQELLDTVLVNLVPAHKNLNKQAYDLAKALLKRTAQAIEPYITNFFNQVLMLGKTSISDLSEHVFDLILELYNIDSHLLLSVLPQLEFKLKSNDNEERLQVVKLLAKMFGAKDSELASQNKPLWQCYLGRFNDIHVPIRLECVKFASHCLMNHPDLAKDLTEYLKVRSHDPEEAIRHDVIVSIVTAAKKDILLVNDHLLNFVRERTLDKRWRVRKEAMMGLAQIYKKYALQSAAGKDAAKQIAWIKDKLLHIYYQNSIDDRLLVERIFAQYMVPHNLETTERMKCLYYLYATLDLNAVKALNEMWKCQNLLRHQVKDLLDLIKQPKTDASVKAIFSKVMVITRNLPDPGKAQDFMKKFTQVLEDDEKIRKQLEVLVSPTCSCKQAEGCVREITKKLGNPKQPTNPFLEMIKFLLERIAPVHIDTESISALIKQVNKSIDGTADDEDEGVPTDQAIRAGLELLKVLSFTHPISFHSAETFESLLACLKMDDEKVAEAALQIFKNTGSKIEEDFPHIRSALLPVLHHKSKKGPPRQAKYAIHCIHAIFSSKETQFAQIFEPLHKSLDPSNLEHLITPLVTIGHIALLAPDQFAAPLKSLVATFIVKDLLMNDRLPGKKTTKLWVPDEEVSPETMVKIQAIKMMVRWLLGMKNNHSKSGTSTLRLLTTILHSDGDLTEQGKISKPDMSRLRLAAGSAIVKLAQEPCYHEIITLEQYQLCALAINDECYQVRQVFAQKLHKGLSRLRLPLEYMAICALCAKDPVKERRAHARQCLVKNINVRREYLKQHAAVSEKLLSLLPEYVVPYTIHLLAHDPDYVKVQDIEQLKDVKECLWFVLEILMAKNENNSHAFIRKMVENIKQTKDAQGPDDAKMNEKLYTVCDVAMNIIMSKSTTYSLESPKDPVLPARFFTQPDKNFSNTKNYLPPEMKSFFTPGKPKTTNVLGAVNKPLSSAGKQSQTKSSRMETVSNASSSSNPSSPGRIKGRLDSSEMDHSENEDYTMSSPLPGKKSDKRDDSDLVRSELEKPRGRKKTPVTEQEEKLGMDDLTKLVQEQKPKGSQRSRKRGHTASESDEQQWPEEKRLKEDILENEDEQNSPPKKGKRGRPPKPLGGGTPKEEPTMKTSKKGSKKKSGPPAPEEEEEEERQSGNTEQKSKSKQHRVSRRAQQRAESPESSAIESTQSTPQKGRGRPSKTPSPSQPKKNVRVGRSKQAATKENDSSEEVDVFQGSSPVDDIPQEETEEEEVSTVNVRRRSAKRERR
# B1: recombinant human Wapl (natural protein, UniProt Q7Z5K2 1-1190, looked up)
# chain: MTSRFGKTYSRKGGNGSSKFDEVFSNKRTTLSTKWGETTFMAKLGQKRPNFKPDIQEIPKKPKVEEESTGDPFGFDSDDESLPVSSKNLAQVKCSSYSESSEAAQLEEVTSVLEANSKISHVVVEDTVVSDKCFPLEDTLLGKEKSTNRIVEDDASISSCNKLITSDKVENFHEEHEKNSHHIHKNADDSTKKPNAETTVASEIKETNDTWNSQFGKRPESPSEISPIKGSVRTGLFEWDNDFEDIRSEDCILSLDSDPLLEMKDDDFKNRLENLNEAIEEDIVQSVLRPTNCRTYCRANKTKSSQGASNFDKLMDGTSQALAKANSESSKDGLNQAKKGGVSCGTSFRGTVGRTRDYTVLHPSCLSVCNVTIQDTMERSMDEFTASTPADLGEAGRLRKKADIATSKTTTRFRPSNTKSKKDVKLEFFGFEDHETGGDEGGSGSSNYKIKYFGFDDLSESEDDEDDDCQVERKTSKKRTKTAPSPSLQPPPESNDNSQDSQSGTNNAENLDFTEDLPGVPESVKKPINKQGDKSKENTRKIFSGPKRSPTKAVYNARHWNHPDSEELPGPPVVKPQSVTVRLSSKEPNQKDDGVFKAPAPPSKVIKTVTIPTQPYQDIVTALKCRREDKELYTVVQHVKHFNDVVEFGENQEFTDDIEYLLSGLKSTQPLNTRCLSVISLATKCAMPSFRMHLRAHGMVAMVFKTLDDSQHHQNLSLCTAALMYILSRDRLNMDLDRASLDLMIRLLELEQDASSAKLLNEKDMNKIKEKIRRLCETVHNKHLDLENITTGHLAMETLLSLTSKRAGDWFKEELRLLGGLDHIVDKVKECVDHLSRDEDEEKLVASLWGAERCLRVLESVTVHNPENQSYLIAYKDSQLIVSSAKALQHCEELIQQYNRAEDSICLADSKPLPHQNVTNHVGKAVEDCMRAIIGVLLNLTNDNEWGSTKTGEQDGLIGTALNCVLQVPKYLPQEQRFDIRVLGLGLLINLVEYSARNRHCLVNMETSCSFDSSICSGEGDDSLRIGGQVHAVQALVQLFLERERAAQLAESKTDELIKDAPTTQHDKSGEWQETSGEIQWVSTEKTDGTEEKHKKEEEDEELDLNKALQHAGKHMEDCIVASYTALLLGCLCQESPINVTTVREYLPEGDFSIMTEMLKKFLSFMNLTCAVGTTGQKSISRVIEYLEHC
# notes: Wapl, human; insert by PCR on human cDNA; Isolated from mitotically arrested cells; also called GFP-SUMOstar-Wapl; source: Hek293T, transiently transfected, taxol-arrested; not shown: GFP, N-terminal, cleaved; SUMOstar, N-terminal, cleaved
# Tests used:
# [1] = molecular target: T1, Flag-tagged Pds5b (wild type) …; assay: pull-down; Flag-Pds5b variants affinity-purified from Nek2a- and cyclin A2-free prometaphase cells, incubated on the beads with recombinant Nek2a and/or Cdk1/2-cyclin A2 and ATP, washed, then incubated with recombinant Wapl (2 µl) and sororin (0.3 µg) in 15 µl cleavage buffer without ATP, 20 min at 37 °C; immunoblotting; settings: both partners purified
# [2] = molecular target: T2, Flag-tagged Pds5b (wild type) from …; assay: pull-down; Flag-Pds5a or -b affinity-purified on anti-Flag beads from chromatin-free lysates of taxol-arrested Hek293T cells (expressed alone or with Nek2aΔMR and/or Δ86-cyclin A2); beads incubated with a mixture of recombinant Wapl (2 µl) and sororin (0.3 µg) in 15 µl cleavage buffer with kinase inhibitors, 20 min at 37 °C; bound and unbound fractions by immunoblotting; settings: both partners purified
binder,measurement,setting,value
B1,binding result,[1],binds
same,binding result,[2],binds
